Measured values published in patent publication US20090054317A1.

Biological target: ANTXR2 expressed in RAW264.7 cells, Q6DFX2
Experiment: cell-based or functional assay

Sequence of ANTXR2 expressed in RAW264.7 cells, Q6DFX2 (Q6DFX2 32-487 limits assumed): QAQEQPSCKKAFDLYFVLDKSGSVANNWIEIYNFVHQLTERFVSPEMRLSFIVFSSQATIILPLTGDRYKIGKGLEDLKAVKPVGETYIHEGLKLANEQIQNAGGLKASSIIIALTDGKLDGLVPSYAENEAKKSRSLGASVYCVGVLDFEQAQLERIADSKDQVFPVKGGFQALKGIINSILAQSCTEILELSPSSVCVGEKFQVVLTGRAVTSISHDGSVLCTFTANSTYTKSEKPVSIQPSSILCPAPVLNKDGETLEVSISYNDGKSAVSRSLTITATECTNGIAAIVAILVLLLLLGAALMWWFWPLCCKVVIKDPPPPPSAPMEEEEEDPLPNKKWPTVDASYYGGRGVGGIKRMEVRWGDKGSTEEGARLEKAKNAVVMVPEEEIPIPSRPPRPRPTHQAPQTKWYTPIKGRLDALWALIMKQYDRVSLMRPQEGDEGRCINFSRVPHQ

For AWPLSQLDHSYNC (modifications not checked) [… (SEQ ID NO: 3)-functionalized liposomes], the Activity against toxin-induced cell death in RAW264.7 cells (IC50) was 40 nM and the enhancement in the activity of the peptide by polyvalency (against the monovalent peptide) was > 50000 fold.
